Measured values published in the DeepSol protein solubility set.

Test: soluble on expression in E. coli; label from the status in PepcDB or PDB records

Sequence	soluble on expression in E. coli
MHHHHHHGSKFKGSTFGRLVRIEFDILRLGELKIDDLSEFDTSEIKLEIKATSSGIKLVGVWEGDIEKVGEAIKKALEESIKLRERILRKMKSKVERIRKALLEMGFREEQFGYGEAVKFVKKVGDFEIAIIVSSREDIVRVEVYGEGNRKIIAPELEAFFESVDIEEIEVYDIEEEGREEKVVINLELPKSDEKPEKRITEAVKILENILMA	soluble
MAENAAPGLISELKLAVPWGHIAAKAWGSLQGPPVLCLHGWLDNASSFDRLIPLLPQDFYYVAMDFGGHGLSSHYSPGVPYYLQTFVSEIRRVVAALKWNRFSILGHSFGGVVGGMFFCTFPEMVDKLILLDTPLFLLESDEMENLLTYKRRAIEHVLQVEASQEPSHVFSLKQLLQRQRTALTSSAGSCVRIPSGSCRPMSC	soluble
MMITSVEKDTKNRGMLSVFIDEKYAFSIPEEDYFRLCLYDKKELSSDEIEEIKKGVSQRTAKYKAVKYLSYRYMTEAELSQKLRKDGYDEDVILNVVTELKSMGYINDLIYAQKYVYDRIKLKPKAKKMLKRELNQKGVSDEIADQVLSELDFDEDVVIERLIRKKFGKYDMKDPKIQKRIYSFLLHRGFDFENIKRVLRTITHLD	soluble
MSLSASFTGAGFFKGGKTLDFSKLSYLSNSFMSLPSTVRNKQASQTAKNKSMIEFIEKIQSKNIVVRQEERGIVISLAADAFFDSASADVKLEENRDSIQKIASFIGFLSPRGYNFKIEGHTDNIDTDVNGPWKSNWELSAARSVNMLEHILNYLDQSDVKRIENNFEVSGFGGSRPIATDDTPEGRAYNRRIDILITTDASLSFPKEGHHHHHH	soluble
MAAAAELRLLEKSLGLKPGNKYSAQGERQIPVLQTNNGPSLMGLSTIATHLVKQASKEHLLGSTAEEKAMVQQWLEFRVTRVDGHSSKEDTQTLLKDLNSYLEDKVYLAGHNITLADILLYYGLHRFIVDLTVQEKEKYLNVSRWFCHIQHYPDIRQHLSSIVFIKNRLYANSH	not soluble
NRYAKLCMEREINKRTVLMQEMELENYKKINQANDKYMELLHNSNHYMRTVYGLLEQDNKDEAINIMDSVLTEYEEGELIEYSTNSILNTILSEYYDKSKTNHIEFNIFVEPGFNIECVESMDLVAMVSNLISNAYEAALKSDEKKIKVQMYMQNDGSFIIIKIENSFSGEIVSQGDRLLTTKKDGNIHGVGIESVEKVAEKYDGWVSTSWGNKSFRTMLVLNNSYVV	not soluble
MGSDKIHHHHHHMNSKIYYFSGTGNSLVVSNILKETLNGSKEVIPLAIHRKENNIDINEDILVIVFPVYFADVPDIVKSFVEKLNFNINTHIYAIATCNGVAGHSLFTIDKLLKKRGKKLSAGFLINMPGNALITPPDVEEERLKNQTNRVAEIAKCINNLEIGNIEGKNNLKSHIDSVVLRLVGKNMQIATTKFFAENKCNGCGTCKRVCPVENISIVDKKPKWGNECERCLACFHWCPKEAINVKKSFLTNRKKYHHPDITVKDIFLDK	not soluble
MKFVSIISNSRMLFLFLLITAKSDRESCLYIFDENIRGVNITPTFVSTRAKGLFDLFIKKLRSRVALSFFLLKRKIKLEETIVYGADHLSHSLLFLKKCSFFLIEDGTENYHQKSYKRSWKNKLFSIPKFGMYKNVKRIYLTKRENVPDCIKSKVEYINIKDLWFKKTEEEKLEILYLLGIDMKKIQLLIGEPFILFTQPLSEDYILTENEKIELYKSIIDKYDASKLVIKPHPREKTDYSRIFPNVKVFDETYPSEVLDILEVKFSRVITLFSTAAFSYPKEKVDFYGTKIHPKLLAKFGNIEYE	not soluble
MTLPPVGSTLYSKGTHNYKGLFKECATVGSTLYSKGTHNDADNVPVLRLVGSTLYSKGTHNSRLARPPTRLVGSTLYSKGTHNMILDWWLGRWNVQ	not soluble
MTLDVGPEDELPDWAAAKEFYQKYDPKDVIGRGVSSVVRRCVHRATGHEFAVKIMEVTAERLSPEQLEEVREATRRETHILRQVAGHPHIITLIDSYESSSFMFLVFDLMRKGELFDYLTEKVALSEKETRSIMRSLLEAVSFLHANNIVHRDLKPENILLDDNMQIRLSDFGFSCHLEPGEKLRELCGTPGYLAPEILKCSMDETHPGYGKEVDLWACGVILFTLLAGSPPFWHRRQILMLRMIMEGQYQFSSPEWDDRSSTVKDLISRLLQVDPEARLTAEQALQHPFFERCEGSQPWNLTPRQRFRVAVWTVLAAGRVALSTHRVRPLTKNALLRDPYALRSVRHLIDNCAFRLYGHWVKKGEQQNRAALFQHRPPGPFPIMGPEEEGDSAAITEDEAVLVLG	soluble
MGSDKIHHHHHHMQLSHSLRLMGTTIDIQINSKNAQKQIREVIELLELYKNRFSANDFNSELMAINNNAGIKPIQVHPDLFELITIGKEHSLARPSNLNIAIGPLVQTWRIGFSDAKLPSPSEISEAMILSDPTHILLDSNKQSVFLNQIGMKIDLGALAKGYIADKIMTYLKNEMIDSAIINLGGNVLVHGDNPNRSEGYWVIGIQHPKKKRGKNIGTVKIKNQSVVTSGTYERRLIIDDKEYHHIFDRQTGYPIQTEMASISIVSKQSVDCEIWTTRLFGLSIKEALDILNAVSYIEGIIITKDDRIYLSDGLKHHFQLFYH	not soluble
MSLSNIETVPASIEMKPNPTITVFERSPDGGRGLARDMPVRWALEEVGQPYHVRRLSFEAMKEASHLAYQPFGQIPSYEQGDLILFESGAIVMHIAQHHSGLLPEDQLRRARTVAWMFAALNTIEPSILNFTTVWLFERNEPWHEARLARTKEQLLKRLDELSAWLGDREWLEGSFSAADILMICVLRRLESSGILKDYGNLLAYVERGKARPAFKRAFDAQLAVFTAASKNEGHHHHHH	soluble
MSLILVKDAIITGKKQDLLVEGNIIKKIGNISISEVSKDETEIIDGKNCVLIPGLINTHTHVPMSLFRGVADDIPLMEWLSGHIWPMESKLNEKIVYAGTLLGTIEMIKSGTTAFNDMYFFLDSIIKAVDETGIRSTIAYGMIDLFDEEKREKELKTAKESLEMIKNLNNSRITGALGPHAPYTCSKEILESTNALAREYNVPIHIHMNETLDEINQVVEKTGMRPFEYLNSFGFFDNVNTICAHCVHLSASEIQIMKEKNIFAAHNPVSNLKLASGVSPVLKLLENNIPVTLGTDGCGSNNNMNLFEEIKAAALIHKGVNLNPVAVIAKDAFDFGTKNGAKALNINSGEIKEGKLADFVLINMKKPYLTPKENIESHLVYSFNGVVDKVVIDGKLVLNDGKMVNIDEEKVYEIAEEAYFELANEGHHHHHH	not soluble
MSAVTYTFLGPQGTFTEAALMQVPGAADATRIPCTNVNTALERVRAGEADAAMVPIENSVEGGVTATLDAIATGQELRIIREALVPITFVLVARPGVELSDIKRISTHGHAWAQCRLWVDEHLPNADYVPGSSTAASAMGLLEDDAPYEAAICAPLIAAEQPGLNVLAEDIGDNPDAVTRFILVSRPGALPERTGADKTTVVVPLPEDHPGALMEILDQFASRGVNLSRIESRPTGQYLGHYFFSIDADGHATDSRVADALAGLHRISPATRFLGSYARADKQPAVVAPHTSDAAFASAHAWVDSILKGS	soluble
MGSDKIHHHHHHMRELPPLDLYETEAAERAGMAAGEPSAGDVELPAEPLLAGEARGQPFTRQSVAPLATIDLSTVPADDVTPRRWIVPDLIPDRNVTDISGDGGLGKSLLALQLGIAMAAGRDWLGTMPEPGGFLYVSCEDEPNEVLRRRNAVLAGMGLTPGDIRNLYLADLTDAEGTELAAPGKAALELTALHHRFEVTIRQLRPKCAVLDTRADVFGGNELSRVQVRMFVRSLRRLCIAHDMAIILLSHPSVSGMASGSGQSGSTGWGNSVRSRLYLTAPKSEGDTDLDPDIRILSSKKANYGPHGAEIVLRWDRGMFRPDRDALASLDRDQQDREIEVTFLQLLSKREKEGRRANASSGPNYAPKVLAEMNGTISRAKFRGAMERLFAKEEIASVSYEANGKGSTQLVLTDKGMSRLRIPF	not soluble
MDLGEFPAPDPSVLVQNFNISDFNGKWYITSGLNPTFDAFDCQLHEFHTEGDNKLVGNISWRIKTLDSGFFTRSAVQKFVQDPNQPGVLYNHDNEYLHYQDDWYILSSKIENKPEDYIFVYYRGRNDAWDGYGGAVVYTRSSVLPNSIIPELEKAAKSIGRDFSTFIRTDNTCGPEPRSHHHHHH	soluble
